Experimental data taken from patent US20180155451A1 (published 2018).

T1: FcγRIIb extracellular domain with C-terminal His tag (human, UniProt P31994 43-217)
T1 construct: extracellular domain; also called FcgRIIb; 2b; not shown: His tag at the C terminus
T1 sequence (looked up): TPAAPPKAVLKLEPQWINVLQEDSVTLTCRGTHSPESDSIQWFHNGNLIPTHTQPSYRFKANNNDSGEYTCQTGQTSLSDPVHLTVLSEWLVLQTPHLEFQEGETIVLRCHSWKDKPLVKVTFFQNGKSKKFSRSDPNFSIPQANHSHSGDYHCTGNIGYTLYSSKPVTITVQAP


Experiments:
[1] = biological target: T2, FcγRIIIa extracellular domain with C-terminal His tag (human, UniProt P08637 17-208); assay: ratio of He/Con_3a to He/Con_2b (FcγRIIIa over FcγRIIb), SPR relative binding
T2 construct: extracellular domain; also called FcgRIIIa; 3a; not shown: His tag at the C terminus
Method: The heterodimerized antibodies He Abs in which one of the H chains was introduced with an alteration were assayed for their binding activities to each activating FcγR and inhibitory FcγR according to the method described in Example 4. […] The activating FcγRs in FIGS. 26, 27, 28, and 29 are FcγRIa, FcγRIIa (R), FcγRIIa (H), and FcγRIIIa, respectively.
Analysis of interaction between objective antibody and the FcγR was carried out using Biacore T100 (GE Healthcare). HBS-EP+ (GE Healthcare) was used as the running buffer, and the measurement temperature was set to 25° C. Chips produced by immobilizing the antigen peptide by the amine coupling method to a Series S Sencor Chip CM5 (GE Healthcare), or alternatively, chips produced by allowing preliminarily biotinylated antigen peptides to interact with and immobilize onto a Series S Sensor Chip SA (certified) (GE Healthcare) were used. Antibodies of interest were captured onto an antigen peptide-immobilized chip, and allowed to interact to each FcγR diluted with running buffer. To regenerate and repeatedly use the chip, the antibodies captured on the chip were washed off by reacting 10 mM glycine-HCl, pH 1.5.

[2] = biological target: T1, FcγRIIb extracellular domain with …; assay: SPR (Biacore), antibody captured via antigen peptide, FcγR as analyte; binding relative to GpH7-A5/GpH7-B3/GpL16-k0 = 100
[3] = biological target: T2, FcγRIIIa extracellular domain with …; assay: as above

T2 sequence (P08637 17-208): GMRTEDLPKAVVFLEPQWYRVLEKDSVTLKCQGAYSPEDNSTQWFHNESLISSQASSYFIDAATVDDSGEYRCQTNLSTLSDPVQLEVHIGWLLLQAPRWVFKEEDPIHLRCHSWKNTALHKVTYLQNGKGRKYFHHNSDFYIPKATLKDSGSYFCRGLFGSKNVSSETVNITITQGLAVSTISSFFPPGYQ

IIIa/IIb (He_3a/2b) [1]	He/Con_2b [2]	He/Con_3a [3]	Binder
1.7	48 relative (control = 100)	81.9 relative (control = 100)	GpH7-A5/GpH7-B3 variant D270_19Q/GpL16-k0 (antibody, human IgG1, kappa, He Ab: the mutation stands only in the GpH7-B3-derived H chain; also called He Ab D270Q) heavy 1: not shown heavy 2: not shown light: DIVMTQSPLSLPVTPGEPASISCQASESLVHSNRNTYLHWYLQKPGQSPQLLIYKVSNRFSGVPDRFSGSGSGTDFTLKISRVEAEDVGVYYCSQNTHVPPTFGQGTKVEIERTVAAPSVFIFPPSDEQLKSGTASVVCLLNNFYPREAKVQWKVDNALQSGNSQESVTEQDSKDSTYSLSSTLTLSKADYEKHKVYACEVTHQGLSSPVTKSFNRGEC
1.68	41.5 relative (control = 100)	69.6 relative (control = 100)	GpH7-A5/GpH7-B3 variant D270_07I/GpL16-k0 (antibody, human IgG1, kappa, He Ab: the mutation stands only in the GpH7-B3-derived H chain; also called He Ab D270I) heavy 1: not shown heavy 2: not shown light: DIVMTQSPLSLPVTPGEPASISCQASESLVHSNRNTYLHWYLQKPGQSPQLLIYKVSNRFSGVPDRFSGSGSGTDFTLKISRVEAEDVGVYYCSQNTHVPPTFGQGTKVEIERTVAAPSVFIFPPSDEQLKSGTASVVCLLNNFYPREAKVQWKVDNALQSGNSQESVTEQDSKDSTYSLSSTLTLSKADYEKHKVYACEVTHQGLSSPVTKSFNRGEC
1.28	44.2 relative (control = 100)	56.7 relative (control = 100)	GpH7-A5/GpH7-B3 variant D270_13S/GpL16-k0 (antibody, human IgG1, kappa, He Ab: the mutation stands only in the GpH7-B3-derived H chain; also called He Ab D270S) heavy 1: not shown heavy 2: not shown light: DIVMTQSPLSLPVTPGEPASISCQASESLVHSNRNTYLHWYLQKPGQSPQLLIYKVSNRFSGVPDRFSGSGSGTDFTLKISRVEAEDVGVYYCSQNTHVPPTFGQGTKVEIERTVAAPSVFIFPPSDEQLKSGTASVVCLLNNFYPREAKVQWKVDNALQSGNSQESVTEQDSKDSTYSLSSTLTLSKADYEKHKVYACEVTHQGLSSPVTKSFNRGEC
1.61	76.5 relative (control = 100)	123 relative (control = 100)	GpH7-A5/GpH7-B3 variant D270_10E/GpL16-k0 (antibody, human IgG1, kappa, He Ab: the mutation stands only in the GpH7-B3-derived H chain; also called He Ab D270E) heavy 1: not shown heavy 2: not shown light: DIVMTQSPLSLPVTPGEPASISCQASESLVHSNRNTYLHWYLQKPGQSPQLLIYKVSNRFSGVPDRFSGSGSGTDFTLKISRVEAEDVGVYYCSQNTHVPPTFGQGTKVEIERTVAAPSVFIFPPSDEQLKSGTASVVCLLNNFYPREAKVQWKVDNALQSGNSQESVTEQDSKDSTYSLSSTLTLSKADYEKHKVYACEVTHQGLSSPVTKSFNRGEC
1.4	40.3 relative (control = 100)	56.5 relative (control = 100)	GpH7-A5/GpH7-B3 variant D270_18N/GpL16-k0 (antibody, human IgG1, kappa, He Ab: the mutation stands only in the GpH7-B3-derived H chain; also called He Ab D270N) heavy 1: not shown heavy 2: not shown light: DIVMTQSPLSLPVTPGEPASISCQASESLVHSNRNTYLHWYLQKPGQSPQLLIYKVSNRFSGVPDRFSGSGSGTDFTLKISRVEAEDVGVYYCSQNTHVPPTFGQGTKVEIERTVAAPSVFIFPPSDEQLKSGTASVVCLLNNFYPREAKVQWKVDNALQSGNSQESVTEQDSKDSTYSLSSTLTLSKADYEKHKVYACEVTHQGLSSPVTKSFNRGEC
2.02	20.3 relative (control = 100)	41 relative (control = 100)	GpH7-A5/GpH7-B3 variant D270_11K/GpL16-k0 (antibody, human IgG1, kappa, He Ab: the mutation stands only in the GpH7-B3-derived H chain; also called He Ab D270K) heavy 1: not shown heavy 2: not shown light: DIVMTQSPLSLPVTPGEPASISCQASESLVHSNRNTYLHWYLQKPGQSPQLLIYKVSNRFSGVPDRFSGSGSGTDFTLKISRVEAEDVGVYYCSQNTHVPPTFGQGTKVEIERTVAAPSVFIFPPSDEQLKSGTASVVCLLNNFYPREAKVQWKVDNALQSGNSQESVTEQDSKDSTYSLSSTLTLSKADYEKHKVYACEVTHQGLSSPVTKSFNRGEC
1.58	18.3 relative (control = 100)	28.8 relative (control = 100)	GpH7-A5/GpH7-B3 variant D270_12R/GpL16-k0 (antibody, human IgG1, kappa, He Ab: the mutation stands only in the GpH7-B3-derived H chain; also called He Ab D270R) heavy 1: not shown heavy 2: not shown light: DIVMTQSPLSLPVTPGEPASISCQASESLVHSNRNTYLHWYLQKPGQSPQLLIYKVSNRFSGVPDRFSGSGSGTDFTLKISRVEAEDVGVYYCSQNTHVPPTFGQGTKVEIERTVAAPSVFIFPPSDEQLKSGTASVVCLLNNFYPREAKVQWKVDNALQSGNSQESVTEQDSKDSTYSLSSTLTLSKADYEKHKVYACEVTHQGLSSPVTKSFNRGEC
1.59	46 relative (control = 100)	73 relative (control = 100)	GpH7-A5/GpH7-B3 variant Q295_01G/GpL16-k0 (antibody, human IgG1, kappa, He Ab: the mutation stands only in the GpH7-B3-derived H chain; also called He Ab Q295G) heavy 1: not shown heavy 2: not shown light: DIVMTQSPLSLPVTPGEPASISCQASESLVHSNRNTYLHWYLQKPGQSPQLLIYKVSNRFSGVPDRFSGSGSGTDFTLKISRVEAEDVGVYYCSQNTHVPPTFGQGTKVEIERTVAAPSVFIFPPSDEQLKSGTASVVCLLNNFYPREAKVQWKVDNALQSGNSQESVTEQDSKDSTYSLSSTLTLSKADYEKHKVYACEVTHQGLSSPVTKSFNRGEC
1.34	60.8 relative (control = 100)	81.5 relative (control = 100)	GpH7-A5/GpH7-B3 variant Q295_09D/GpL16-k0 (antibody, human IgG1, kappa, He Ab: the mutation stands only in the GpH7-B3-derived H chain; also called He Ab Q295D) heavy 1: not shown heavy 2: not shown light: DIVMTQSPLSLPVTPGEPASISCQASESLVHSNRNTYLHWYLQKPGQSPQLLIYKVSNRFSGVPDRFSGSGSGTDFTLKISRVEAEDVGVYYCSQNTHVPPTFGQGTKVEIERTVAAPSVFIFPPSDEQLKSGTASVVCLLNNFYPREAKVQWKVDNALQSGNSQESVTEQDSKDSTYSLSSTLTLSKADYEKHKVYACEVTHQGLSSPVTKSFNRGEC
